B1: Peroxisome assembly protein 22 (Saccharomyces cerevisiae), P39718 (parent)
chain: MPPPSRSRINKTRTLGIVGTAIAVLVTSYYIYQKVTSAKEDNGARPPEGDSVKENKKARKSKCIIMSKSIQGLPIKWEEYAADEVVLLVPTSHTDGSMKQAIGDAFRKTKNEHKIIYCDSMDGLWSCVRRLGKFQCILNSRDFTSSGGSDAAVVPEDIGRFVKFVVDSDVEDVLIDTLCN
partner: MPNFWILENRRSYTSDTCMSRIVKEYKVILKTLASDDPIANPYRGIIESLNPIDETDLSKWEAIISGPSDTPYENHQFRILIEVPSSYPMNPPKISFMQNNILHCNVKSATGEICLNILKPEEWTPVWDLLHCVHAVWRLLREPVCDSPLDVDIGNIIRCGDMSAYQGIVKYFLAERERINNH
B2: Ubiquitin-conjugating enzyme E2-21 kDa (Saccharomyces cerevisiae), P29340 (parent)
chain: B1 partner
partner: B1 chain

Variants of: B1
Conditions: with ubcx_yeast PEX4, P29340

| Variant | effect of a mutation on the interaction |
| --- | --- |
| MPPPSRSRINKTRTLGIVGTAIAVLVTSYYIYQKVTSAKEDNGARPPEGDSVKENKKARKSKCIIMSKSIQGLPIKWEEYAADEVVLLVPTSHTDGSMKQAIGDAFRKTKNEHKIIYCDSMDGLWSCVRRLGAFQCILNSRDFTSSGGSDAAVVPEDIGRFVKFVVDSDVEDVLIDTLCN [K133A] | decreasing interaction |

Variants of: B2
Conditions: with pex22_yeast PEX22, P39718

| Variant | effect of a mutation on the interaction |
| --- | --- |
| MPNFWILENRRSYTSDTCMSRIVKEYKVILKTLASDDPIANPYRGIIESLNPIDETDLSKWEAIISGPSDTPYENHQFRILIEVPSSYPMNPPKISFMQNNILHCNVKSATGEICLNILKPEEWTPVWDLLHCVHAVWRLLREPVCDSPLDVDIGNIIRCGDMSAYQGIVKFFLAERERINNH [Y172F] | decreasing interaction |

Variants of: B2
Conditions: with pex22_yeast PEX22, P39718
Remark: another data set of the same source

| Variant | effect of a mutation on the interaction |
| --- | --- |
| MPNFWILENRRSYTSDTCMSRIVKEYKVILKTLASDDPIANPYRGIIESLNPIDETDLSKWEAIISGPSDTPYENHQFRILIEVPSSYPMNPPKISFMQNNILHCNVKSATGEICLNILKPEEWTPVWDLLHCVHAVWRLLREPVCDSPLDVDIGNIIRCGDMSAYQGIVKAFLAERERINNH [Y172A] | disrupting interaction |
